Some results are limits rather than exact numbers.

This assay addresses HLA-A*24 (human). The assay is described as follows: UV-ligand exchange, anti-b2m ELISA.
For PYRLIFEKF [SEQ ID NO: 281 peptide …], the peptide exchange yield lay in the range of 20 to 49%.

The molecule QYLGQIQHI [SEQ ID NO: 268 peptide …] showed a peptide exchange yield of 50 to 75%.

With VYVGGGQIIHL [SEQ ID NO: 174 peptide …], the peptide exchange yield was in the range of 50 to 75%.

In turn, TFSVSSHLF [SEQ ID NO: 222 peptide …] came in with a peptide exchange yield of 50 to 75%.

As for VYWDSAGAAHF [SEQ ID NO: 202 peptide …], the peptide exchange yield is over 75%.

Take YFIDSTNLKTHF [SEQ ID NO: 269 peptide …]: the peptide exchange yield lay within 50 to 75%.

As to IYATEAHVF [SEQ ID NO: 201 peptide …], the peptide exchange yield was in the range of 50 to 75%.

RYAEEVGIF [SEQ ID NO: 199 peptide …]: the peptide exchange yield is 50 to 75%.

With TYSVSFPMF [SEQ ID NO: 195 peptide …], the peptide exchange yield is over 75%.

In turn, TYKDEGNDYF [SEQ ID NO: 209 peptide …] showed a peptide exchange yield of 50 to 75%.

On to YYKSTSSAF [SEQ ID NO: 218 peptide …], for which the peptide exchange yield was in the range of 50 to 75%.

Take TYELRYFQI [SEQ ID NO: 204 peptide …]: the peptide exchange yield is over 75%.

Consider NYYEVHKELF [SEQ ID NO: 270 peptide …], for which the peptide exchange yield fell in the range of 50 to 75%.

On to EYSLFPGQVVI [SEQ ID NO: 197 peptide …], for which the peptide exchange yield lay in the range of 50 to 75%.

As for LYITEPKTI [SEQ ID NO: 287 peptide …], the peptide exchange yield lay in the range of 50 to 75%.

EYNQWFTKL [SEQ ID NO: 176 peptide …]: the peptide exchange yield was in the range of 50 to 75%.

YYEVHKELF [SEQ ID NO: 175 peptide …] gave a peptide exchange yield of over 75%.

Molecule VYQGHTALL [SEQ ID NO: 277 peptide …] yielded a peptide exchange yield of over 75%.

YYGPSLFLL [SEQ ID NO: 200 peptide …]: the peptide exchange yield was in the range of 50 to 75%.

AYVVFVSTL [SEQ ID NO: 207 peptide …] returned a peptide exchange yield of 20 to 49%.

In turn, HYPPVQVLF [SEQ ID NO: 285 peptide …] displayed a peptide exchange yield of 50 to 75%.

LYIDRPLPYL [SEQ ID NO: 196 peptide …] returned a peptide exchange yield of 50 to 75%.

(Values after patent US20170189504A1.)
